Substrate in data set [1]: Nc1ncnc2c1ncn2[C@@H]1O[C@H](COP(=O)(O)OP(=O)(O)OP(=O)(O)O)[C@@H](O)[C@H]1O
The data set is described as follows: Binding affinity to aurora B.

Substrate in data set [2]: Nc1ncnc2c1ncn2[C@@H]1O[C@H](COP(=O)(O)OP(=O)(O)OP(=O)(O)O)[C@@H](O)[C@H]1O
Kind of data set: Binding affinity to CHK1.

Substrate in data set [3]: Nc1ncnc2c1ncn2[C@@H]1O[C@H](COP(=O)(O)OP(=O)(O)OP(=O)(O)O)[C@@H](O)[C@H]1O
Kind of data set: Binding affinity to Akt2.

The results in this text go back to ChEMBL document CHEMBL1268867, “ATPases as drug targets: insights from heat shock proteins 70 and 90” (J Med Chem, 2010).

B1: Aurora kinase B (Homo sapiens), Q96GD4 (protein)
chain: MAQKENSYPWPYGRQTAPSGLSTLPQRVLRKEPVTPSALVLMSRSNVQPTAAPGQKVMENSSGTPDILTRHFTIDDFEIGRPLGKGKFGNVYLAREKKSHFIVALKVLFKSQIEKEGVEHQLRREIEIQAHLHHPNILRLYNYFYDRRRIYLILEYAPRGELYKELQKSCTFDEQRTATIMEELADALMYCHGKKVIHRDIKPENLLLGLKGELKIADFGWSVHAPSLRRKTMCGTLDYLPPEMIEGRMHNEKVDLWCIGVLCYELLVGNPPFESASHNETYRRIVKVDLKFPASVPMGAQDLISKLLRHNPSERLPLAQVSAHPWVRANSRRVLPPSALQSVA
Take B1: in data set [1], the Km was 34 µM.

B2: Serine/threonine-protein kinase Chk1 (Homo sapiens), O14757 (protein)
chain: MAVPFVEDWDLVQTLGEGAYGEVQLAVNRVTEEAVAVKIVDMKRAVDCPENIKKEICINKMLNHENVVKFYGHRREGNIQYLFLEYCSGGELFDRIEPDIGMPEPDAQRFFHQLMAGVVYLHGIGITHRDIKPENLLLDERDNLKISDFGLATVFRYNNRERLLNKMCGTLPYVAPELLKRREFHAEPVDVWSCGIVLTAMLAGELPWDQPSDSCQEYSDWKEKKTYLNPWKKIDSAPLALLHKILVENPSARITIPDIKKDRWYNKPLKKGAKRPRVTSGGVSESPSGFSKHIQSNLDFSPVNSASSEENVKYSSSQPEPRTGLSLWDTSPSYIDKLVQGISFSQPTCPDHMLLNSQLLGTPGSSQNPWQRLVKRMTRFFTKLDADKSYQCLKETCEKLGYQWKKSCMNQVTISTTDRRNNKLIFKVNLLEMDDKILVDFRLSKGDGLEFKRHFLKIKGKLIDIVSSQKIWLPAT
Consider B2, for which, in data set [2], the Km worked out at 1.4 µM.

B3: RAC-beta serine/threonine-protein kinase (Homo sapiens), P31751 (protein)
chain: MNEVSVIKEGWLHKRGEYIKTWRPRYFLLKSDGSFIGYKERPEAPDQTLPPLNNFSVAECQLMKTERPRPNTFVIRCLQWTTVIERTFHVDSPDEREEWMRAIQMVANSLKQRAPGEDPMDYKCGSPSDSSTTEEMEVAVSKARAKVTMNDFDYLKLLGKGTFGKVILVREKATGRYYAMKILRKEVIIAKDEVAHTVTESRVLQNTRHPFLTALKYAFQTHDRLCFVMEYANGGELFFHLSRERVFTEERARFYGAEIVSALEYLHSRDVVYRDIKLENLMLDKDGHIKITDFGLCKEGISDGATMKTFCGTPEYLAPEVLEDNDYGRAVDWWGLGVVMYEMMCGRLPFYNQDHERLFELILMEEIRFPRTLSPEAKSLLAGLLKKDPKQRLGGGPSDAKEVMEHRFFLSINWQDVVQKKLLPPFKPQVTSEVDTRYFDDEFTAQSITITPPDRYDSLGLLELDQRTHFPQFSYSASIRE
Regarding B3, the Km in data set [3] is 254 µM.
